Reference: patent publication US20260028422A1 (CONCEPT TO MEDICINE BIOTECH, published 2026)
Like-named read-outs stand apart in the source and are kept apart here. Each block holds one binder with its values, some of them ahead of it.

Tests used:
[1] = target: T1, human MerTK expressed on cells (human, UniProt Q12866 21-999); experiment: FACS on CHO-K1 cells overexpressing human MerTK, MFI (PE)
T1 construct: whole, on cells; also called CHO-K1-hMerTK; CHO-K1-MerTK
T1 sequence (looked up): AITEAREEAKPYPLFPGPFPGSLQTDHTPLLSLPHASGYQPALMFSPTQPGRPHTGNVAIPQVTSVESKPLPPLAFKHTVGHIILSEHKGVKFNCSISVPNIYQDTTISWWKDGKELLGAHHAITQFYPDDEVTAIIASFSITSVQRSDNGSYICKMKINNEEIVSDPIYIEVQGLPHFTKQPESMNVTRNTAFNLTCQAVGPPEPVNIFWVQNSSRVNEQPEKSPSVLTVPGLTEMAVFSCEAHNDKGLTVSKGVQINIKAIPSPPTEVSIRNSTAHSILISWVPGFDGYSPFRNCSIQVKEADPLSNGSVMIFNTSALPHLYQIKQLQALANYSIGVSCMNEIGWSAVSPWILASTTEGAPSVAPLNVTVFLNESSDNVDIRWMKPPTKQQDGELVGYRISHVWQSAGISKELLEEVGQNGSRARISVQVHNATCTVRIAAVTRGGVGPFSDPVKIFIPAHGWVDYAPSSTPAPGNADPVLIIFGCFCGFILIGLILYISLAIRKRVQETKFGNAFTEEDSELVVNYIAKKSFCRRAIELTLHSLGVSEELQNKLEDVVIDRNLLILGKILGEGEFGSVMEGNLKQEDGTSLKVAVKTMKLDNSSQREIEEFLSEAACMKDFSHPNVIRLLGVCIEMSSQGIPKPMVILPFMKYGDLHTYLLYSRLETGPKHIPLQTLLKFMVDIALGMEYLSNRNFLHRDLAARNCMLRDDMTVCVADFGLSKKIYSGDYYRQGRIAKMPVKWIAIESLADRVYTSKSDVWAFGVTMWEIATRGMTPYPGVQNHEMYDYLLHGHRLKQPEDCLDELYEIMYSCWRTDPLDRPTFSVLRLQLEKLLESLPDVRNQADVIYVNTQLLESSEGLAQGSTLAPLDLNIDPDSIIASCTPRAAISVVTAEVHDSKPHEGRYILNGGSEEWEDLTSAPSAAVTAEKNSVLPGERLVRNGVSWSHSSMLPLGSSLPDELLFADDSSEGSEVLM
Procedure: To evaluate the binding property to the antigen expressed on the cells, the chimeric monoclonal antibodies were analyzed for their binding to human MerTK overexpressed on CHO-K1 cells by FACS. Briefly, human MerTK overexpressing CHO-K1 (CHO-K1-MerTK) cells were firstly incubated with 5-fold serially diluted mAbs starting at 20 nM at 4° C. for 1 hour. After washing with FACS buffer, the PE conjugated anti-human IgG-Fc secondary antibody was added to each well and incubated at 4° C., for 30 mins. The mean fluorescence intensity (MFI) of PE were evaluated by QuantAnalyzer 16.
To evaluate the binding property to the antigen expressed on the cells, the humanized antibodies were analyzed by FACS as described before.

human MerTK-his protein = target: T2, human MerTK-his protein (human, UniProt Q12866 21-505); experiment: ELISA, plate coated with human MerTK-his, OD 450nm
T2 construct: extracellular domain; also called hMerTK-His; human MerTK protein
T2 sequence (looked up): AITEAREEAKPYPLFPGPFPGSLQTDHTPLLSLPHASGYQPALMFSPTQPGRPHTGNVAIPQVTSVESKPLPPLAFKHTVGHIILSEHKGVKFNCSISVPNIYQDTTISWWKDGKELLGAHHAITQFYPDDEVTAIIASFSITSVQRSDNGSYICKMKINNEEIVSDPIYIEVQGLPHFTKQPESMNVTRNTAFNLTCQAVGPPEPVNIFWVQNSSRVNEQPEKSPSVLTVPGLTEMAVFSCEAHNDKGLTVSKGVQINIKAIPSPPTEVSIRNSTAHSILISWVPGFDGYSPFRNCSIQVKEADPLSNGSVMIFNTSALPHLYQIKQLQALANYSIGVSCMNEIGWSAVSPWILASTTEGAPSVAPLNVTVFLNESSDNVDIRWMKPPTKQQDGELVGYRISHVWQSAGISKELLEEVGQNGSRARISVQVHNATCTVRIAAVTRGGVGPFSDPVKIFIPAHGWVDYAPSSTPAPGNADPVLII
Procedure: To evaluate the binding activity, the chimeric mAbs were subjected to ELISA test. Briefly, 96-well plates were coated with human or cyno MerTK-his protein at 2 μg/mL in PBS, 100 μL/well at 4° C. overnight, then blocked with 150 μL/well of 1% BSA. Five-fold dilutions of MerTK antibodies starting from 20 nM were added to each well and incubated for 1 hour at room temperature. The plates were washed with PBS/Tween-20 and then incubated with goat anti-human IgG Fe antibody conjugated with Horse Radish Peroxidase (HRP) for 30 minutes (mins) at room temperature. After washing, the plates were developed with TMB substrate and subsequent stop solution was added to complete the reaction. The signal from each well was read by spectrophotometer at OD 450 nm.
To evaluate the antigen binding activity, the humanized antibodies were subjected to ELISA test as described before.

[2] = target: T1, human MerTK expressed on cells; experiment: FACS on CHO-K1 cells overexpressing human MerTK, MFI (AF488)
cyno MerTK-his protein [3] = target: T3, cyno MerTK-his protein (cynomolgus, UniProt A0A2K5V1H9 27-505); experiment: ELISA, plate coated with cyno MerTK-his, anti-human IgG Fc-HRP, OD 450nm
T3 construct: also called cyno MerTK protein; Cynomolgus
T3 sequence: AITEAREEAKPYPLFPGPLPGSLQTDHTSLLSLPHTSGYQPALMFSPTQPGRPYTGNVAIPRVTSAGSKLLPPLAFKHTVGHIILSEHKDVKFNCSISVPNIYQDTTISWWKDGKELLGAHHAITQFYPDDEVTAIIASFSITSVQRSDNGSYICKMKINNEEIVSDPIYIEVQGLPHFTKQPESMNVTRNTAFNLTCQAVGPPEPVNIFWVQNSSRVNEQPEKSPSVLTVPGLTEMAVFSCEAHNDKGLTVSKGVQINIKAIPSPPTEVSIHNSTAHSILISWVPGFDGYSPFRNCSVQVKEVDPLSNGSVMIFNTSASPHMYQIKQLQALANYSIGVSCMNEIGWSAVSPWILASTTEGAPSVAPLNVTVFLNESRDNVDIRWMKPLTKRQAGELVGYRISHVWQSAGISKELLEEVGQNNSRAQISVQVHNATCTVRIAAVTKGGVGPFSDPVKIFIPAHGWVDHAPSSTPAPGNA

cyno MerTK-his protein [4] = target: T3, cyno MerTK-his protein; experiment: as above; remark: listed apart in the source

EC50 [1]: 230 pM
B1: 10F7D9 chimeric monoclonal antibody (antibody, V domains shown)
VH: QIQLVQSGPELKKPGETVKISCKASGYTFTNYGMNWVKQAPGKGLKWMGWINTYTGEPTYADDFKGRFAFSLETSASTAYLQINNLKNEDLATYFCATYGHYAWFAYWGQGTLVTVSA
VL: QIVLSQSPAILSASPGEKVTMTCRASSSVSYMHWYQQKSGSSPKPWIYATSNLASGVPARFSGSGSGTSYSLTISRVEAEDAATYFCQQWGTKPLTFGAGTKLELK

EC50 (human MerTK-his protein): 98 pM | EC50 [2]: 180 pM
B2: 265F11B5 chimeric monoclonal antibody (antibody, V domains shown)
VH: QVQLQQSGPELVKPGASVRLSCKASGYTFTTYDINWVKQRPGLGLEWIGWIYPRDGYTKYNEKFKGRATLAVDTSSSTAYMELHSLTSEDSAVYFCTRGYYDNLYYFDYWGQGTTLTVSS
VL: EIVLTQSPTTVAASPGEKITITCSASSIISSNYFHWYQQRPGFSPKLLIYRTSNLASGVPARFSGSGSGTSYSLTIGTMEAEDVATYYCQQGRSVPLTFGAGTKLELK

EC50 (cyno MerTK-his protein [3]): 44 pM | EC50 (cyno MerTK-his protein [4]): 27 pM
B3: h13B4.v16 benchmark antibody (antibody, V domains shown)
VH: EVQLVESGEGLVQPGGSLRLSCAASGFSLSSYAMGWVRQAPGKGLEYVGIINSYGNTYYANWAKGRFTISRDNSKNTVYLQMGSLRAEDMAVYYCARDPGVSSNLWGRGTLVTVSS
VL: DIQMTQSPSTLSASVGDRVTITCQASQNIYSGLAWYQQKPGKAPKLLIYGASKLASGVPSRFSGSGSGTEFTLTISSLQPDDFATYYCQATYYSSNSVAFGGGTKVEIK
